Reference: US5969094A, “Anti-paramyxovirus screening method and vaccine” (Emory University, priority 1996, dated 1999)

T1: SN-F, fusion glycoprotein of Sendai virus (Sendai virus (SN), UniProt P04855)
T1 sequence: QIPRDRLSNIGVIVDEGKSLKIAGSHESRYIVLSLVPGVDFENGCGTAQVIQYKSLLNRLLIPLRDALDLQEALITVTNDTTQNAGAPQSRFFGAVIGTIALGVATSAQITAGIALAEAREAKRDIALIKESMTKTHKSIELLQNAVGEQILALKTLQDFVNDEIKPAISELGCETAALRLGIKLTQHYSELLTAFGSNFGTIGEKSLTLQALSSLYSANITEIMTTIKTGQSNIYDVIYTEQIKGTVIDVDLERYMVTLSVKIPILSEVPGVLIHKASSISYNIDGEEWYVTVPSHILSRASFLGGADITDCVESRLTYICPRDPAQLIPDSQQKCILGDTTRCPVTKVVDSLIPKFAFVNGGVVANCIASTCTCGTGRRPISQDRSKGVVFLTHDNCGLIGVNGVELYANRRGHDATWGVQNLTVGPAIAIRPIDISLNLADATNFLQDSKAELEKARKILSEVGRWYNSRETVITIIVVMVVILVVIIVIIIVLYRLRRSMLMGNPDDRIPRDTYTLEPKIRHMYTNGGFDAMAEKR

T2: SN-F (Sendai virus, UniProt P04855)
T2 sequence (P04855 117-565 limits assumed): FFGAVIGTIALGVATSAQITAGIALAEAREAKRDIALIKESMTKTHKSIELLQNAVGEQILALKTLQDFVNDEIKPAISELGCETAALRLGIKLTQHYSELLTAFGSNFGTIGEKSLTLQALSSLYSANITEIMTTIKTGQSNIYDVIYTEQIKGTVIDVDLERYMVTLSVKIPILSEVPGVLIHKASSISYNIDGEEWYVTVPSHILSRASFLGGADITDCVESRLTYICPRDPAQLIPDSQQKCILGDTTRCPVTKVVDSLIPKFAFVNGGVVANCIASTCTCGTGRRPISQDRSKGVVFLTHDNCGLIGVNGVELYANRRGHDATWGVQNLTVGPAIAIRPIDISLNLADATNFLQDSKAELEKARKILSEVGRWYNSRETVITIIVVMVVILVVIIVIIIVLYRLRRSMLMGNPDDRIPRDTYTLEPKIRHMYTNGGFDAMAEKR
T2 sequence (P04855 26-116 partner limits assumed): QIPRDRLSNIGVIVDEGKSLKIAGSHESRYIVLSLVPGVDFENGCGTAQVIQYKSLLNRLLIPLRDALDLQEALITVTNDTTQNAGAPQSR


How the values were obtained:
PI3 virus = assay type: cell-based, human parainfluenza type 3 virus
PI3F + PI3HN = PI3F + PI3HN (Human parainfluenza 3 virus, UniProt P06828)
[1] = molecular target: T1, SN-F, fusion glycoprotein of Sendai …; assay: cell-based or functional assay
SN-F = molecular target: T2, SN-F; assay type: cell-based
HeLa-T4 cells = assay type: cell-based
guinea pig erythrocytes = assay type: cell-based
[2] = molecular target: PI3 F plus PI3 HN (viral glycoproteins of PI3 virus; HN:F) (parainfluenza type 3 (PI3) virus, UniProt P06828); assay: cell-based or functional assay

Row | Molecule | inhibition of PI3 cell fusion at high peptide concentration (PI3 virus) | syncytium formation / inhibition of cell fusion in PI3 infected HeLa-T4 cells (in words) (PI3 virus; incubated with peptide, concentration not given) | inhibition of PI3 virus-induced cell fusion (PI3 virus; peptide 200 μM or more, 24 h post infection) | inhibition of cell fusion by vaccinia-expressed PI3 F and HN (in words) (PI3F + PI3HN) | Fusion activity (%), β-galactosidase production in the fusion dependent reporter gene activation assay [1] | Relative fusion promoting activity b/a (SN-F) | Cell surface expression (%) (HeLa-T4 cells) | HAD activity as percentage of wild type SN-HN hemadsorption (guinea pig erythrocytes) | hemadsorption observed under the microscope (guinea pig erythrocytes) | fusion promoting activity, percentage of wild type SN-HN (SN-F) [%] | 50% effective concentration (EC50) of inhibition of virus infection efficiency, plaque assay, Reed-Muench method [2] [µM] | viral titer in the culture supernatant post infection [2] [fold reduction]
1 | 3F1B24: 24 a.a. PI3F peptide corresponding to the heptad repeat B only (ELNKAKSDLEESKEWIRRSNQKLD) | could only partially inhibit cell fusion | dramatically decreased | partially inhibited | only partially inhibited cell fusion | – | – | – | – | – | – | – | –
2 | SN(59-140)d chimeric HN protein (other) MEYWKHTNHGKDAGNELETSMATHGNKITNKITYILWTIILVLLSIVFIIVLISARQGYSMKEYSMTVEALNMSSREVKESLTSLIRQEVIARAVNIQSSVQTGIPVLLNKNSRDVIQMIDKSCSRQELTQHCESRITHDVGIKPLNPDDFWRCTSGLPSLMKTPKIRLMPGPGLLAMPTTVDGCVRTPSLVINDLIYAYTSNLITRGCQDIGKSYQVLQIGIITVNSDLVPDLNPRISHTFNINDNRKSCSLALLNTDVYQLCSTPKVDERSDYASSGIEDIVLDIVNHDGSISTTRFKNNNISFDQPYAALYPSVGPGIYYKGKIIFLGYGGLEHPINENAICNTTGCPGKTQRDCNQASHSPWFSDRRMVNSIIVVDKGLNSIPKLKVWTISMRQNYWGSEGRLLLLGNKIYIYTRSTSWHSKLQLGIIDITDYSDIRIKWTWHNVLSRPGNNECPWGHSCPDGCITGVYTDAYPLNPTGSIVSSVILDSQKSRVNPVITYSTSTERVNELAIRNKTLSAGYTTTSCITHYNKGYCFHIVEINHKSLDTFQPMLFKTEIPKSCS | – | – | – | – | 31.3 % of SN-HN wt with SN-F | 0.51 | 61.6 | comparable or higher HAD activity than that of SN-HN | high levels of hemadsorption | – | – | –
3 | SN(80-140)d chimeric HN protein (other) MEYWKHTNHGKDAGNELETSMATHGNKITNKITYILWTIILVLLSIVFIIVLINSIKSEKAHESLLQDVNNEFMSREVKESLTSLIRQEVIARAVNIQSSVQTGIPVLLNKNSRDVIQMIDKSCSRQELTQHCESRITHDVGIKPLNPDDFWRCTSGLPSLMKTPKIRLMPGPGLLAMPTTVDGCVRTPSLVINDLIYAYTSNLITRGCQDIGKSYQVLQIGIITVNSDLVPDLNPRISHTFNINDNRKSCSLALLNTDVYQLCSTPKVDERSDYASSGIEDIVLDIVNHDGSISTTRFKNNNISFDQPYAALYPSVGPGIYYKGKIIFLGYGGLEHPINENAICNTTGCPGKTQRDCNQASHSPWFSDRRMVNSIIVVDKGLNSIPKLKVWTISMRQNYWGSEGRLLLLGNKIYIYTRSTSWHSKLQLGIIDITDYSDIRIKWTWHNVLSRPGNNECPWGHSCPDGCITGVYTDAYPLNPTGSIVSSVILDSQKSRVNPVITYSTSTERVNELAIRNKTLSAGYTTTSCITHYNKGYCFHIVEINHKSLDTFQPMLFKTEIPKSCS | – | – | – | – | 6.72 % of SN-HN wt with SN-F | 0.09 | 72.0 | 30.5% | lower activities | 6.7 | – | –
4 | SN(59-140) chimeric HN protein (other) MEYWKHTNHGKDAGNELETSMATHGNKITNKITYILWTIILVLLSIVFIIVLINSIKSSARQGYSMKEYSMTVEALNMSSREVKESLTSLIRQEVIARAVNIQSSVQTGIPVLLNKNSRDVIQMIDKSCSRQELTQHCESRITHDVGIKPLNPDDFWRCTSGLPSLMKTPKIRLMPGPGLLAMPTTVDGCVRTPSLVINDLIYAYTSNLITRGCQDIGKSYQVLQIGIITVNSDLVPDLNPRISHTFNINDNRKSCSLALLNTDVYQLCSTPKVDERSDYASSGIEDIVLDIVNHDGSISTTRFKNNNISFDQPYAALYPSVGPGIYYKGKIIFLGYGGLEHPINENAICNTTGCPGKTQRDCNQASHSPWFSDRRMVNSIIVVDKGLNSIPKLKVWTISMRQNYWGSEGRLLLLGNKIYIYTRSTSWHSKLQLGIIDITDYSDIRIKWTWHNVLSRPGNNECPWGHSCPDGCITGVYTDAYPLNPTGSIVSSVILDSQKSRVNPVITYSTSTERVNELAIRNKTLSAGYTTTSCITHYNKGYCFHIVEINHKSLDTFQPMLFKTEIPKSCS | – | – | – | – | 8.82 % of SN-HN wt with SN-F | 0.11 | 82.3 | comparable or higher HAD activity than that of SN-HN | high levels of hemadsorption | 8.8 | – | –
5 | Ac-ELNKAKSDLEESKEWIRRSNQKLDSIGNWHQSSTT-NH2 [peptide 3F1B35] | – | – | – | – | – | – | – | – | – | – | 81.6 | 10
6 | SN(44-140) chimeric HN protein (other) MEYWKHTNHGKDAGNELETSMATHGNKITNKITYILWTIILVLQWALSIATVIICIIISARQGYSMKEYSMTVEALNMSSREVKESLTSLIRQEVIARAVNIQSSVQTGIPVLLNKNSRDVIQMIDKSCSRQELTQHCESRITHDVGIKPLNPDDFWRCTSGLPSLMKTPKIRLMPGPGLLAMPTTVDGCVRTPSLVINDLIYAYTSNLITRGCQDIGKSYQVLQIGIITVNSDLVPDLNPRISHTFNINDNRKSCSLALLNTDVYQLCSTPKVDERSDYASSGIEDIVLDIVNHDGSISTTRFKNNNISFDQPYAALYPSVGPGIYYKGKIIFLGYGGLEHPINENAICNTTGCPGKTQRDCNQASHSPWFSDRRMVNSIIVVDKGLNSIPKLKVWTISMRQNYWGSEGRLLLLGNKIYIYTRSTSWHSKLQLGIIDITDYSDIRIKWTWHNVLSRPGNNECPWGHSCPDGCITGVYTDAYPLNPTGSIVSSVILDSQKSRVNPVITYSTSTERVNELAIRNKTLSAGYTTTSCITHYNKGYCFHIVEINHKSLDTFQPMLFKTEIPKSCS | – | – | – | – | 88.7 % of SN-HN wt with SN-F | 0.70 | 126.6 | comparable or higher HAD activity than that of SN-HN | high levels of hemadsorption | – | – | –
7 | SN(54-140) chimeric HN protein (other) MEYWKHTNHGKDAGNELETSMATHGNKITNKITYILWTIILVLLSIVFIIVLIICIIISARQGYSMKEYSMTVEALNMSSREVKESLTSLIRQEVIARAVNIQSSVQTGIPVLLNKNSRDVIQMIDKSCSRQELTQHCESRITHDVGIKPLNPDDFWRCTSGLPSLMKTPKIRLMPGPGLLAMPTTVDGCVRTPSLVINDLIYAYTSNLITRGCQDIGKSYQVLQIGIITVNSDLVPDLNPRISHTFNINDNRKSCSLALLNTDVYQLCSTPKVDERSDYASSGIEDIVLDIVNHDGSISTTRFKNNNISFDQPYAALYPSVGPGIYYKGKIIFLGYGGLEHPINENAICNTTGCPGKTQRDCNQASHSPWFSDRRMVNSIIVVDKGLNSIPKLKVWTISMRQNYWGSEGRLLLLGNKIYIYTRSTSWHSKLQLGIIDITDYSDIRIKWTWHNVLSRPGNNECPWGHSCPDGCITGVYTDAYPLNPTGSIVSSVILDSQKSRVNPVITYSTSTERVNELAIRNKTLSAGYTTTSCITHYNKGYCFHIVEINHKSLDTFQPMLFKTEIPKSCS | – | – | – | – | 55.3 % of SN-HN wt with SN-F | 0.42 | 131.5 | comparable or higher HAD activity than that of SN-HN | high levels of hemadsorption | – | – | –
